Laboratory results reported in the DeepSol protein solubility set.

assay: soluble on expression in E. coli; label from the status in PepcDB or PDB records

| Sequence | soluble on expression in E. coli |
| --- | --- |
| MNYHQYYPIDVVNGPGTRCTLFVSGCVHQCKGCYNQSTWSLSSGHRYTQEMEDKIIADLKDTRIKRRGLSLSGGDPMHPANLSAVLQLVQRVKTECPDKDIWLWTGYTLAELDDSQQALLPYIDVLVDGKFIQEQADPGLEWRGSANQVIHRFTLLEHHHHHH | not soluble |
| MNYKADIGVFGGSGFYSFLENVEEIEMETPYGKPSDKIAIATYEGKRIAFLPRHGKNHQFPPHMIPYRANLYAMKKLGVKKILAPTSSGSLRADIKPGDFVICDQFVDRTTGRKDTFYDGPVTKHISSAHPYCPELRKIAIQVGKDLGITTHEKGTVVVIQGPRFSTVAESRWFSKMGWDVINMTQYPEVYLARELGICYANIALITDYDAGLEGRDDIEPVTEEAVLKVFAENNEKVKNMLFEVIKRIDLENSNCTCCNVDLSGLDL | soluble |
| MPAIEVGRICVKVKGREAGSKCVIVDIIDDNFVLVTGPKDITGVKRRRVNILHLEPTDKKIDIQKGASDEEVKKKLEESNLTEYMKEKIKIRMPTL | soluble |
| MPASYLHHRSVTQQLPIMSTPHTDFFGLTIPFMQLLGVVPEHSGNGTARTRLPARADLVNSRGDIHGGTLMSVLDFTLGAAIRGDTPEVGVATIDMNTSFMSPGRGDLVIETRCLRRGASIAFCEGEIRDSAGELVAKATATFKIIQRRPGLEHHHHHH | soluble |
| MPAVTQPRGESKYDAIPGPLGPQSASLEGKVALVTGAGRGIGREMAMELGRRGCKVIVNYANSTESAEEVVAAIKKNGSDAACVKANVGVVEDIVRMFEEAVKIFGKLDIVCSNSGVVSFGHVKDVTPEEFDRVFTINTRGQFFVAREAYKHLEIGGRLILMGSITGQAKAVPKHAVYSGSKGAIETFARCMAIDMADKKITVNVVAPGGIKTDMYHAVCREYIPNGENLSNEEVDEYAAVQWSPLRRVGLPIDIARVVCFLASNDGGWVTGKVIGIDGGACM | soluble |
| MPDEIYLFTPKGKIFALPKNSTALDFAYAVHTDIGNHAVTSRVDKQLMPLRTKLSSGQTVEIITARSALPKPQWLEHHHHHH | not soluble |
| MPDRLQLLEERLVVNKDRFKAGSVQIGKRIETRQETVSVPLQREEVVIERHAVTDGRAVEGAVLGEGHQTMSVDLEAERANISKQAYVTEEVSVGKRAVTETQQVTETVGREVLDVNQTGDVRLEHHHHHH | not soluble |
| MPDSDTGSNMAHTMTAAVQQAQGVDNPDDLAAVAMALATGAVKGARGNSGVVLSQVLRGIAHHADSGRIDAHVIQEALRSSLDFVAAAISDPVEGTVITVLRAAAIAATNSEDRSLAAVVSVAAHAARIALAETPSQLQVLRDAKVVDAGGQGLVILLDCLEHVVTGTATSYDPHIIETTEQQQSHGTSGYLEVMCFIAGVEVSHLHDLLAPLGDCLVIGPISDTSATVHIHSTDAATVISTLYATGTITDLHIEVLPETPKVVHPKRIVLALTPPGDLAQLYTDAGALVVVRDGHHFAIARSTNLGQAETPLADGIEIVNELVARSHQSGAQEVILLPNGLLTTQEMAAVERSSQAFKQSITMLPTGSLVRGLAALSVHDPQQSLAVATYAMTEAMSGMRTAVIERAEHAALTPAGACAKGDLLVHLGTEPIAVAEQPEEALRIACRRLLDIGGEQILILARKELALTPDNHSLTGPHTDVEINQYDVDRLGALIEIGVE | not soluble |
| MPEDVKNFYLMTNGFHMTWSVKLDEHIIPLGSMAINSISKLTQLTQSSMYSLPNAPTLADLEDDTHEASDDQPEKPHFDSRSVIFELDSCNGSGKVCLVYKSGKPALAEDTEIWFLDRALYWHFLTDTFTAYYRLLITHLGLPQWQYAFTSYGISPQAKVREEHLPL | not soluble |
| MPEILKIKPTRMELLKLKRRVKLAERGHKLLKEKQDALIMEFFTIYDEALSLRRELIRKMEEAFNSLRRAQVDVGALRLKEIAIGVKPNKEIEIKTRNIMGVRVPLIEVPELKRKASERGYAFVSTTSTVDMAAEKFEEVLELAIRLAEVEESLKRLGKEIEKTKRRVNALEYIIIPRMENTIKFIEQHLDEMERENFFRLKRVKAILEARQSMLEHHHHHH | soluble |
| MPETELHVIFDQPNEVFFPGQPISGRVVLSTTEEKYKARAVNIKILGLAHTSWTDYDSVRRVDNDGNVRYDSESVHYSSNVHYLDQALLLWACKDGSNELSAGDYVWPFSYTLPLNVPPSFEGKYGYLRYSVTAEVDRPWRLDKAKRRCITVSPLIDLNAIPLALTPIDDEESENLGCCFFRKGYLELRVNIPKTGFVPGETVPMNIHILNHSSVPVTEVKAKIIQQCKFIAYRNGTIFRFDGGSDTLMSGSSQQTKYDTKPVITQTQPMTVTPGNEHKFVLEFRLPSVTPTICRFSPVITVEYVVQVRVETTSTCGSAAKCEMPILIGTVPIRNYLPPPIPNNYPIGLPPPYANLTDVNVPCPSGGSGTAVIPSAPPPSYQESMYGVGGTELRAEENEKPFAPKYPVFNNLPIYNPTAPPSE | not soluble |
| MPFIAAMWHGQHIMISFMSRPQDRVATIISRSPDGNINTMALTRMGVRVMRASGARGRAVKDARAKGGAEGLRAMVKALKGGETVAFSADVPKVSRVCLEHHHHHH | not soluble |
| MPGPILKKCFNCRVALPEDAINTAQCQKCQKNEAKYGKPGTCQYCKLNAAFHDQKCVWCSHAERKFGNPFPCANCKLSCAFPRRESDKVEGAALLCRLCILQARHTNQTVVAGIPVPPEKPERSGEGSSTEQRDRDHRQHRPTSHHHRDHKDHHRRDDKHHHRDSNHRHAHKRRHQEEPNNNSNNGTSSSGGAPPLVPNNENGNGFPPFGDRDPGESMVKQQKMEDEIRRLKTLLAEKDQLIFDKDKQISNLKADQYNLDKKHRERVQQLIKEKEDSIRAIEQMRNSKSSKRN | not soluble |
| MPGSDAGPRRRGVHEQRRNRMSNEAKCPFHQAAQNGTSNRDWWPNQLDLSILHRHSSLSDPMGKDFNYAQAFEKLDLAAVKRDLHALMTTSQDWWPADFGHYGGLFIRMAWHSAGTYRTADGRGGAGEGQQRFAPLNSWPDNANLDKARRLLWPIKQKYGRAISWADLLILTGNVALESMGFKTFGFAGGRADTWEPEDVYWGSEKIWLELSGGPNSRYSGDRQLENPLAAVQMGLIYVNPEGPDGNPDPVAAARDIRDTFARMAMNDEETVALIAGGHTFGKTHGAGPASNVGAEPEAAGIEAQGLGWKSAYRTGKGADAITTGLEVTWTTTPTQWSHNFFENLFGYEWELTKSPAGAHQWVAKGADAVIPDAFDPSKKHRPTMLTTDLSLRFDPAYEKISRRFHENPEQFADAFARAWFKLTHRDMGPRARYLGPEVPAEVLLWQDPIPAVDHPLIDAADAAELKAKVLASGLTVSQLVSTAWAAASTFRGSDKRGGANGARIRLAPQKDWEANQPEQLAAVLETLEAIRTAFNGAQRGGKQVSLADLIVLAGCAGVEQAAKNAGHAVTVPFAPGRADASQEQTDVESMAVLEPVADGFRNYLKGKYRVPAEVLLVDKAQLLTLSAPEMTVLLGGLRVLGANVGQSRHGVFTAREQALTNDFFVNLLDMGTEWKPTAADADVFEGRDRATGELKWTGTRVDLVFGSHSQLRALAEVYGSADAQEKFVRDFVAVWNKVMNLDRFDLA | soluble |
| MPKNKGKGGKNRRRGKNENDFMKRELDLKEEGQEYGQVSKMLGNGRVQVFCFDGKQRVCHIRGKLRKKVWINVGDIILVGLRDYQDDKGDVILKYTPDEARRLKNEGLIPENAKLNENDEQDEGEVEFLDHVGDEGEAGEAKSDSDSSDSDSEKSDEEAGSDKEEESDDDSEEESDEDSDDSDNIREEDLAAGRGFKEDTRRGGNRGGKNKYGKRR | soluble |
| MPKSAKRRASQPTGAETLVVVESPAKARSIQKMLGPGYEVRASLGHVVDLPERSLGVDVERDFAPTYEVKKDKKPVVEELKRAAEGKRLLIATDPDREGEAIGWHVARLLGRDPKEPLRVEFHEITPRVVRQAVEAPRPIDQNLVDAQQARRVLDRLLGYNLSPLLSLEFRKRALSAGRVQSVALRLVVEREEAIEAFRPEEYWVLRGVFAVEGGEAPLVATLHEVEGKRLWTGQGEKEGRLHLASEAEAHALAEALRKGSYRVAQVEVRERRKAPPPPFTTSTLQQAASSRLGYTAARTMRIAQRLYEGVDLPEGTVGLITYMRTDSVRVAPEAVAAAREVIGKAFGPEYLPEAPRAYKNRREGVQDAHEAIRPTDPKRTPESVRPYLSEEEYRLYELIWRRFLASQMRDALYEQTAVTLADLEGRYAFRASGSVLRFEGYLRAWGRDAEEEEEPPVPAVPEGVPARLEEVLEERRFTEPPPRYTDASLVKTMEELGIGRPSTYAPTLETLEKRGYVARKGRTLFPTPLGRQVTAYLRERFPQVVAYEFTARMEERLDEVEEGRVPWPKVVWEFYEPFLGELAQVPKKTCPRCGRPLELKVSRYGQFLGCTGYPECTYTEPLERREAEPIGEACPKCGRPLLRKEGRYGTFIACSGYPECDYTRDDGTPTGHTCPKCGGRVLEKRSRKGRPYYKCENNACDFLSFYPLLEEACPACGWPLVKKGEKALCLNPACPEHEPSLLPAPKEAKKGRSRGKGKPPLAPPKDWEELVPFLPGLSPEERRAVEALARGEALARGEALAEEEARLARRALFKLRMRKGKARKEPVRA | soluble |
| MPKTEDKYLPLMSKEKIEKALAFHKSFPQYSETPLAELNHMAAYLGLNDFFVKDESYRFGLNAFKVLGGSFAMANYIAEKLKKDVSELTYDELTSDQLRSAFGQATFFTATDGNHGRGVAWAANKLGQKSVVLMPKGSTQTRKENIEKEGATVTIEEVNYDECVRMANKMAEETENGVMVQDTAWDGYEKIPTWIMQGYGTMALEASQQLRKFGSERPSHVFVQAGVGSLAGAVIGYFANAFPENPPIMVVVEAQAADCLYQSAIKKDGEIRFVDGDLQTIMAGLACGEPNTISFDILKNHTSFFVSAPDWVSEKGMRMLGAPLKGDPQVVSGESGAVAMGLVATVMQDPDYQELHEALQLDETSNVLMFSTEGDTDPDNYKKILWR | not soluble |
| MPLLGLLPRRAWASLLSQLLRPPCASCTGAVRCQSQVAEAVLTSQLKAHQEKPNFIIKTPKGTRDLSPQHMVVREKILDLVISCFKRHGAKGMDTPAFELKETLTEKYGEDSGLMYDLKDQGGELLSLRYDLTVPFARYLAMNKVKKMKRYHVGKVWRRESPTIVQGRYREFCQCDFDIAGQFDPMIPDAECLKIMCEILSGLQLGDFLIKVNDRRIVDGMFAVCGVPESKFRAICSSIDKLDKMAWKDVRHEMVVKKGLAPEVADRIGDYVQCHGGVSLVEQMFQDPRLSQNKQALEGLGDLKLLFEYLTLFGIADKISFDLSLARGLDYYTGVIYEAVLLQTPTQAGEEPLNVGSVAAGGRYDGLVGMFDPKGHKVPCVGLSIGVERIFYIVEQRMKTKGEKVRTTETQVFVATPQKNFLQERLKLIAELWDSGIKAEMLYKNNPKLLTQLHYCESTGIPLVVIIGEQELKEGVIKIRSVASREEVAIKRENFVAEIQKRLSES | soluble |
| MPLPPDITFDSLALIKMHSQNMKRILEVTLAKFTVNLSIVTVYRYLTARAYLKKNIEAEFEILKDIYNIVPLLDDIAIKAAQIEANLIKKEITLDMEDIITATTAIYTNSLLVTDDPKRYEPIRRFGLDTMPLDKFIKEVELMVEKELI | soluble |
| MPLPSFLEVYEGLISTSSISSTDARWDEGNEQVIAKLADWLSALGFSIQIEQVAPNKQNLIAKLGSGEGGLLLAGHSDTVPFDEGRWNYNPHALTQVNNRFYGLGTADMKGFFAFIYEAVKNVDWSKQTKPLYVLATCDEETTMLGARHFTENAPFKPDYCIIGEPTSLVPIRAHKGHVANAIRVTGKSGHSSNPALGVNAIEIMHEVLFALMQLRDRLIKEYHHPGFEIPTPTLNLGHIHGGDSPNRICGCCELHYDVRPLPGISLDGLDNLMHDALREVQQKWPGRIELVPLHDPIPGYECAHDHPFIHGISEICEQEAQTVNYCTEAPFLQQVCPTLVLGPGSIDQAHQPDEFLAFEFIDPTVRVLSRAMQKYCF | soluble |
